Values of other authors as cited in publication PMC3359799.
Like-named read-outs stand apart in the source and are kept apart here.

Legend:
[1] = molecular target: Exendin-4 (Heloderma suspectum) (UniProt P26349)
GLP-1 (Homo sapiens) [2] = molecular target: GLP-1 (Homo sapiens) (UniProt P01275)
GLP-1 (Homo sapiens) [3] = molecular target: GLP-1 (Homo sapiens) (UniProt P01275); remark: listed apart in the source
[4] = molecular target: Exendin-4 (Heloderma suspectum) (UniProt P26349); assay: surface plasmon resonance
[5] = molecular target: Exendin-4 (Heloderma suspectum) (UniProt P26349); remark: listed apart in the source
GLP-1 (Homo sapiens) [6] = molecular target: GLP-1 (Homo sapiens) (UniProt P01275); remark: listed apart in the source

Chain of UniProt P26349 (P26349 48-86): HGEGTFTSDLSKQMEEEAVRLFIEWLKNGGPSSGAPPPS
Chain of UniProt P01275 (P01275 98-127): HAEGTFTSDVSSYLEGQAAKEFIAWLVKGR

| Substance | Kd [1] | Kd (GLP-1 (Homo sapiens) [2]) | Kd (GLP-1 (Homo sapiens) [3]) | Kd [4] | Kd [5] | Kd (GLP-1 (Homo sapiens) [6]) |
| --- | --- | --- | --- | --- | --- | --- |
| GLP-1 receptor ECD (from UniProt P43220) | 13 nM | 800 nM | 1000 nM | 900 nM |  |  |
| GLP-1 receptor (from UniProt P43220) |  |  |  |  | 0.1 nM | 0.3 nM |
